Data reported in patent US20180037641A1 (WASHINGTON UNIVERSITY, published 2018).

Key:
[1] = target: recombinant mouse tau, longest isoform mTau40 (432 aa) (mouse, UniProt P10637-2 1-430, limits assumed); experiment: SPR (Biacore), mouse tau immobilised, antibody injected
Description: FIGS. 30A, 30B, 30C, 30D, 30E, 30F and 30G. Characterization of anti-tau antibodies by surface plasmon resonance (SPR) and Immunoblotting. The figure depicts SPR sensorgrams showing the binding of each anti-tau antibody towards immobilized recombinant human tau (longest isoforms hTau40, 441 aa) and immobilized mouse tau (longest isoforms mTau40, 432 aa). Each antibody was run with various concentrations (0.11, 0.23, 0.46, 0.90, […], 3.7, 7.5 μg/ml) and plots are shown in the corresponding color. (FIG. 30A) SPR sensorgrams of HJ9.3 antibody binding to immobilized human tau and immobilized mouse tau (FIG. 30B). (FIG. 30C) SPR sensorgrams of HJ9.4 antibody binding to immobilized human tau and immobilized mouse tau (FIG. 30D). SPR sensorgrams of HJ8.5 antibody binding to immobilized (FIG. 30E) human and (FIG. 30F) mouse tau. (FIG. 30G) RAB soluble fractions of 3 month old tau knockout (KO), 3 month old wild-type (WT), 3 month old P301 S (3 mo) and 9 month old P301 S (9 mo) mice were analyzed by immunoblot by using the indicated anti-tau antibodies.
Surface plasmon resonance Surface plasmon resonance experiments were performed on BIAcore 2000 surface plasmon resonance instrument (GE Healthcare-BIAcore). Biacore sensor chip CM-5 was activated by using EDC (1-ethyl-3-(3-dimethylaminopropyl)-carbodiimide) and NHS (N-hydroxysuccinimide) in a 1:1 ratio for 7 minutes. […]

[2] = target: T1, recombinant human tau, longest isoform hTau40 (441 aa) (human, UniProt P10636-8 1-441); experiment: SPR (BIAcore 2000), tau immobilised on CM-5 chip, antibody injected 0.11-7.5 µg/ml, 1:1 Langmuir global fit
T1 construct: range 1-441
Description: Prior to testing in vivo, the binding affinities and epitopes of the antibodies, which are all lgG2b isotype, were determined. Human and mouse tau was immobilized on a sensor chip CMS for surface plasmon resonance (SPR) (FIGS. 30A-30G). […] The association (Kₐ) and dissociation (Kd) was calculated by using BIAevaluation software (Biacore AB) selecting Fit kinetics simultaneous Kd/Kₐ (Global fitting) with 1:1 (Langmuir) interaction model. […] The epitope of HJ9.3 was mapped to the repeat domain (RD) region, between amino acids 306-320. […] It binds to human tau (FIG. 30E) but not to mouse tau (FIG. 30F). […] The epitope of HJ8.5 was mapped to amino acids 25-30. All 3 anti-tau antibodies strongly recognized human tau fibrils on SPR (FIG. 31). Because the fibrils have multiple identical epitopes, the association and dissociation rates could not be directly calculate.
Surface plasmon resonance Surface plasmon resonance experiments were performed on BIAcore 2000 surface plasmon resonance instrument (GE Healthcare-BIAcore). Biacore sensor chip CM-5 was activated by using EDC (1-ethyl-3-(3-dimethylaminopropyl)-carbodiimide) and NHS (N-hydroxysuccinimide) in a 1:1 ratio for 7 minutes.

[3] = target: T2, endogenous murine tau (mouse brain and ISF) (mouse, UniProt P10637-2 1-430, limits assumed); experiment: immunoblot of RAB soluble brain fractions of KO, WT and P301S mice
T2 construct: Mixture of isoforms from tissue; also called mouse tau (Western blot, immunostaining, ISF immunoprecipitation)

[4] = target: T1, recombinant human tau, longest isoform …; experiment: SPR (Biacore), tau immobilised on CM-5 chip, antibody injected 0.78-400 nM
Description: To characterize the binding affinity of the HJ8 and HJ9 series antibodies to mouse tau and human tau, Biacore's SPR technology was used. Biacore sensor chip CM-5 (Carboxymethylated dextran matrix) was activated by using EDC (1-ethyl-3-(3-dimethylaminopropyl)-carbodiimid) and NHS (N-hydroxysuccinimide) in 1:1 ratio. 2). Then ligand, either mouse tau or human Tau, were immobilized (20 ug/ml, in 10 mM sodium acetate pH 3.5) on Biacore CM-5 sensor chip at a flow rate of 5 μI/min. The remaining unbound area on the Biacore CM-5 sensor chip was deactivated by passage of 1 M ethanolamine pH 8.5.
Following preparation of the sensor chip surface, analytes (e.g. antibody) were injected with different concentrations (0.78 nM-400 nM) in filtered, degassed 0.01 M Hepes buffer, 0.15 M NaCl, 0.005% surfactant P20, pH 7.4 at a flow rate of 10 μI/min. All the samples were run in duplicates. After each cycle/run with single antibody concentration, the surface of the chip was regenerated by using 10 mM glycine pH 1.7, to remove the bound antibody/analyte, leaving the monomer/fibrils/ligand attached to the surface.

T1 sequence (P10636 other isoform, or with tags, fused parts or gaps limits assumed): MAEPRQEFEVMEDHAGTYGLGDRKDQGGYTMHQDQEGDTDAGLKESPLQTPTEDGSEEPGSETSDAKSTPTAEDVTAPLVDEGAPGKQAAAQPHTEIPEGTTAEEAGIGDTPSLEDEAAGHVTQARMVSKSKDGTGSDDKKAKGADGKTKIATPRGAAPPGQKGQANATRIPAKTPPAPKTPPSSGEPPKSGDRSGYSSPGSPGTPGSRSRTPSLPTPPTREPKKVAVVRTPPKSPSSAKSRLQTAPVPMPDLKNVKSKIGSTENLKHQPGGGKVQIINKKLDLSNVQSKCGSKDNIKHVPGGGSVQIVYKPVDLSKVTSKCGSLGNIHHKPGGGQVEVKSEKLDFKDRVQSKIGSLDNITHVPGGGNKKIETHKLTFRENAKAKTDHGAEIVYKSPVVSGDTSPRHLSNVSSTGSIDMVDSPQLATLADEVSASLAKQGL
T2 sequence (P10637 other isoform, or with tags, fused parts or gaps limits assumed): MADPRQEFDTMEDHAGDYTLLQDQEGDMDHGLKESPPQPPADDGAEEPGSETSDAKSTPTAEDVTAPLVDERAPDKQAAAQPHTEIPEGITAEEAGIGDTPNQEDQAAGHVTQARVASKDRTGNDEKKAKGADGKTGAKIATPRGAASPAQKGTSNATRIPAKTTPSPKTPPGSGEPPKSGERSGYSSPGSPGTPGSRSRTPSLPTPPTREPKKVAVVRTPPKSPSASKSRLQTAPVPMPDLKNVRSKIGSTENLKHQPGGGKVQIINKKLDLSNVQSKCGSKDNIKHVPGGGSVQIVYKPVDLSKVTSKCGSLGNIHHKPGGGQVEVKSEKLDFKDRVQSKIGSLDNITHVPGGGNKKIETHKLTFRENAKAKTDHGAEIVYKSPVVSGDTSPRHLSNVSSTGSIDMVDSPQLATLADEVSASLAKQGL
recombinant mouse tau, longest isoform mTau40 (432 aa), sequence (P10637 other isoform, or with tags, fused parts or gaps limits assumed): as above

B1: HJ8.5 (antibody, V domains shown)
VH: EVKVEESGGGLVQPGGSMKLSCVVSGFTFSNYWVNWVRQSPEKGLEWVAQIRLKSDNYATHYEESVKGRFTISRDDSKSSVYLQMNNLRAEDSGIYYCTNWEDYWGQGTTLTVSS
VL: DIVLTQSPASLAVSLGQRATISCRASQSVSTSRYSYIHWYQQKPGQPPKLLIKYASNLESGVPARFSGSGSGTDFTLNIHPLEEEDAATYYCHHSWEIPLTFGAGTKLELK
notes: also called HJ8.5B (biotinylated)
[1]
  binding result: no binding (tested: 7.5 µg/ml)
[2]
  Kd: 0.336 pM
  koff: 4.34e-08 s⁻¹
  kon: 130000 M⁻¹ s⁻¹
[3]
  binding result: no binding
[4]
  Kd: 0.336 pM
  koff: 4.34e-08 s⁻¹
  kon: 130000 M⁻¹ s⁻¹
